Source: article PMC9859756, “OASL phase condensation induces amyloid-like fibrillation of RIPK3 to promote virus-induced necroptosis” (Nature Cell Biology, 2023)

How the values were obtained:
[1] = target: T1, eGFP C-terminal fused full-length human OASL (human, UniProt Q15646 1-514); assay: in vitro recruitment into phase-separated droplets (fluorescence microscopy); conditions: both partners purified
T1 construct: also called OASL–GFP; GFP-tagged full-length OASL; source: E. coli BL21 DE3 (pLys), purified (glutathione sepharose 4B, GST removed with PreScission protease); not shown: eGFP, C-terminal, kept
T1 sequence (looked up): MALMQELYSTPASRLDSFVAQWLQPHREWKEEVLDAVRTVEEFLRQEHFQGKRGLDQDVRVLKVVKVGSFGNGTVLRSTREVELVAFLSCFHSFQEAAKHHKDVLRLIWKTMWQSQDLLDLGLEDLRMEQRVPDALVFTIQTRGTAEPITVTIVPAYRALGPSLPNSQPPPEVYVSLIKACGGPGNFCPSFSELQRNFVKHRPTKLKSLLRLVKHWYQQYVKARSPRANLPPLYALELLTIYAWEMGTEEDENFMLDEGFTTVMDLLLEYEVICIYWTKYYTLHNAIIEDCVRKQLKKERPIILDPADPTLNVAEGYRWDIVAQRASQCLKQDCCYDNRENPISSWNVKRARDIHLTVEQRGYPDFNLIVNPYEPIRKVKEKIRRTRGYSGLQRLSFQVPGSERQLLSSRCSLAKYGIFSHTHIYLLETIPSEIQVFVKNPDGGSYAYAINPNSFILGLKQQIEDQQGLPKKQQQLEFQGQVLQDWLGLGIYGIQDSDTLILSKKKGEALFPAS

[2] = target: T2, mCherry C-terminal fused full-length human RIPK3 (human, UniProt Q9Y572 1-518); assay: as above; conditions: both partners purified
T2 construct: also called RIPK3–mCherry; mCherry-tagged full-length RIPK3; source: E. coli BL21 DE3 (pLys), purified (glutathione sepharose 4B, GST removed with PreScission protease); not shown: mCherry, C-terminal, kept

B1: BFP C-terminal fused full-length human ZBP1 (natural protein, UniProt Q9H171 1-429, looked up)
chain: MAQAPADPGREGHLEQRILQVLTEAGSPVKLAQLVKECQAPKRELNQVLYRMKKELKVSLTSPATWCLGGTDPEGEGPAELALSSPAERPQQHAATIPETPGPQFSQQREEDIYRFLKDNGPQRALVIAQALGMRTAKDVNRDLYRMKSRHLLDMDEQSKAWTIYRPEDSGRRAKSASIIYQHNPINMICQNGPNSWISIANSEAIQIGHGNIITRQTVSREDGSAGPRHLPSMAPGDSSTWGTLVDPWGPQDIHMEQSILRRVQLGHSNEMRLHGVPSEGPAHIPPGSPPVSATAAGPEASFEARIPSPGTHPEGEAAQRIHMKSCFLEDATIGNSNKMSISPGVAGPGGVAGSGEGEPGEDAGRRPADTQSRSHFPRDIGQPITPSHSKLTPKLETMTLGNRSHKAAEGSHYVDEASHEGSWWGGGI
notes: also called ZBP1–BFP; not shown: BFP, C-terminal, kept
B1: binds [1].

B2: mCherry C-terminal fused C-terminal unstructured region of human RIPK3 (RIPK3 295–518) (domain or fragment, UniProt Q9Y572 295-518, looked up)
chain: NAAVSTVKDFLSQLRSSNRRFSIPESGQGGTEMDGFRRTIENQHSRNDVMVSEWLNKLNLEEPPSSVPKKCPSLTKRSRAQEEQVPQAWTAGTSSDSMAQPPQTPETSTFRNQMPSPTSTGTPSPGPRGNQGAERQGMNWSCRTPEPNPVTGRPLVNIYNCSGVQVGDNNYLTMQQTTALPTWGLAPSGKGRGLQHPPPVGSQEGPKDPEAWSRPQGWYNHSGK
notes: also called RIPK3_(295–518)–mCherry; C-terminal RIPK3_(295–518); source: E. coli BL21 DE3 (pLys), purified (glutathione sepharose 4B, GST removed with PreScission protease); not shown: mCherry, C-terminal, kept
B2: binds [1].

B3: purified untagged full-length OASL (natural protein, human, UniProt Q15646 1-514, looked up)
chain: T1 sequence (looked up)
notes: also called purified human OASL protein; source: purified
B3: binds [2].
